Here are results for three molecules from patent publication US20230012273A1 (Boehringer Ingelheim, published 2023).

The term Kd denotes the equilibrium constant for the complex coming apart.

Like-named read-outs stand apart in the source and are kept apart here.

Test [1] deals with T1, human SIRPαV1 extracellular domain + His-tag (NP_542970.1) (human, UniProt P78324 31-373).
T1 construct: also called hSIRPαV1; HuSIRPαV1
Description: SPR, Ab captured, ECD-His analyte. Put shortly:
(§1)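 Steps: chip deactivated with 1M ethanolamine HCl for 420 sec at 10 μl/min; anti-SIRPα antibody captured; two-fold serial dilutions of His-tagged SIRP extracellular domain injected 300 sec at 30 μl/min; dissociation monitored 600 sec. All in 1×HBS-EP+ running buffer.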

Test [2] concerns the target T2, human SIRPαV2 extracellular domain + His-tag (CAA71403.1) (human, UniProt P78324 31-373).
T2 construct: also called hSIRPαV2; HuSIRPαV2
Briefly: SPR, Ab captured, ECD-His analyte. The gist of the method: as §1
A general note: In SPR one partner is held on a chip, and binding of the other changes the refractive index at the surface.

The target in test [3] is T3, human SIRPγ extracellular domain + His-tag (NP_061026.2) (human, UniProt Q9P1W8 29-360).
T3 construct: also called hSIRPγ; HuSIRPγ
Briefly: SPR, Ab captured, ECD-His analyte. Put shortly:
as §1

Test [4] has as its target T4, mouse SIRPα extracellular domain + His-tag (NP_031573) (mouse, UniProt P97797 32-373).
T4 chain: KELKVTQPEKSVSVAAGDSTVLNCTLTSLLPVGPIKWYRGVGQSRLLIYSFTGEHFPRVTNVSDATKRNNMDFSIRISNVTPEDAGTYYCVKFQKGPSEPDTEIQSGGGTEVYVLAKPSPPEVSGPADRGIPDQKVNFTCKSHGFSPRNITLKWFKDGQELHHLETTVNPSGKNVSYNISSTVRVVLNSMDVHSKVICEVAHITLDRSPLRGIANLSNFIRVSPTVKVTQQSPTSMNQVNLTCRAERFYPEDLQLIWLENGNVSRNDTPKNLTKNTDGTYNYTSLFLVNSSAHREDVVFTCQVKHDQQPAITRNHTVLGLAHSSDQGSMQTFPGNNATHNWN
Briefly: SPR, Ab captured, ECD-His analyte. As to the method: (§2) The binding affinity of anti-SIRPα antibodies to the various SIRPα analytes is determined by surface plasmon resonance (SPR) using a ProteOn XPR36 (Bio-Rad). The running buffer for this experiment and all dilutions (except where stated) are done in 1×HBS-EP+. […] The sensorchip is deactivated with 1M ethanolamine HCl for 420 sec at a flowrate of 10 μl/min.
(§3) The analyte is injected over the captured antibody for 300 sec at a flowrate of 30 μl/min. The dissociation is done for 600 sec. Two-fold serial dilutions of each SIRP protein (Extracellular Domain+His-Tag) are injected as analyte with the highest concentrations indicated in table 36 below.

The target in test [5] is T5, cynomolgus SIRPα extracellular domain + His-tag (NP_001271679) (cynomolgus monkey).
T5 construct: also called CySIRPα NP_001271679; cynoSIRPα
T5 chain: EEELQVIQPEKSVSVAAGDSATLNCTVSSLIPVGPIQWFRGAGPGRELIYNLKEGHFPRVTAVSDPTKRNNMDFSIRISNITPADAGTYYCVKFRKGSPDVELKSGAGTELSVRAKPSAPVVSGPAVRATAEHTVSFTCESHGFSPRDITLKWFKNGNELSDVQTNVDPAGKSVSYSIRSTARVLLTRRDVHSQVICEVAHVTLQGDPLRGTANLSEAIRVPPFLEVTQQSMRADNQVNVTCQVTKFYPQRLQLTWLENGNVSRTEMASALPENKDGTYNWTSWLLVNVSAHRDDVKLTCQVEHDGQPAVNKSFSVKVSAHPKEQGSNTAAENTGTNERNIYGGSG
Description: SPR, Ab captured, ECD-His analyte. As to the method: as §2, §3

Test [6] deals with T6, human SIRPβ1 extracellular domain + His-tag (NP_006056.2) (human, UniProt O00241 30-371).
T6 construct: also called hSIRPβ1; HuSIRPβ1
Briefly: SPR, Ab captured, ECD-His analyte. Put shortly: as §1

The target in test [7] is T7, human SIRPβL/SIRPβ1v3 extracellular domain + His-tag (NP_001129316.1) (human, UniProt Q5TFQ8 30-371).
T7 construct: also called hSIRPβ1v3; HuSIRPβ1v3
Description: SPR, Ab captured, ECD-His analyte. Put shortly:
as §1

Test [8] concerns the target T8, full-length human SIRPγ (NP_061026.2) on cells (human, UniProt Q9P1W8 29-387).
T8 construct: on CHO and Expi-CHO cells; endogenous on primary human CD3+ T cells; also called γ WT
Description: flow cytometry, primary human CD3+ T cells. The protocol: Antibody binding to primary human T cells expressing endogenous SIRPγ is evaluated by flow cytometry. Human peripheral blood mononuclear cells (PBMCs) are blocked with donkey IgG and incubated on ice with increasing concentrations of antibody for 60 minutes, washed and stained with AF647-conjugated donkey F(ab′)₂ anti-human IgG secondary reagent. […] Cells are washed, fixed, and analyzed by flow cytometry. Median fluorescent intensity of CD3+ gated population is determined and used as a measure of antibody binding.

The target in test [9] is full-length human SIRPβ1 D→H on Expi-CHO cells (human, UniProt O00241 30-398). Briefly: flow cytometry, Expi-CHO cells. As to the method:
These cells are blocked with donkey IgG and incubated on ice with increasing concentrations of antibodies for 60 minutes, washed and stained with AF647-conjugated donkey F(ab′)₂ anti-human IgG antibodies. Stained cells are washed, fixed, and analyzed by flow cytometry. Median fluorescent intensity is determined and used as a measure of antibody binding.

Test [10] concerns the target T9, full-length human SIRPβL (NP_001129316.1) on cells (human, UniProt Q5TFQ8 30-398).
T9 construct: on U937 SIRPα KO cells and Expi-CHO cells; also called βL WT; SIRPβ1v3
Description: flow cytometry, U937 SIRPα KO cells. As to the method: Antibody binding to cells expressing full-length human SIRPβ1 (NP_006056.2) and SIRPβL (NP_001129316.1) is evaluated by flow cytometry. SIRPβ1- or SIRPβL-expressing U937^{SIRPα KO} cells are blocked with donkey IgG and incubated on ice with increasing concentrations of antibodies for 60 minutes, washed and stained with AF647-conjugated donkey F(ab′)₂ anti-human IgG secondary reagent. Cells are washed, fixed, and analyzed by flow cytometry. Median fluorescent intensity is determined and used as a measure of antibody binding.
On the technique in general: A flow cytometer gives signals particle by particle.

Test [11] concerns the target T10, cynomolgus SIRPα extracellular domain + His-tag (EGM_02252) (cynomolgus monkey).
T10 construct: also called CySIRPα EGM_02252; cynoSIRPα
T10 chain: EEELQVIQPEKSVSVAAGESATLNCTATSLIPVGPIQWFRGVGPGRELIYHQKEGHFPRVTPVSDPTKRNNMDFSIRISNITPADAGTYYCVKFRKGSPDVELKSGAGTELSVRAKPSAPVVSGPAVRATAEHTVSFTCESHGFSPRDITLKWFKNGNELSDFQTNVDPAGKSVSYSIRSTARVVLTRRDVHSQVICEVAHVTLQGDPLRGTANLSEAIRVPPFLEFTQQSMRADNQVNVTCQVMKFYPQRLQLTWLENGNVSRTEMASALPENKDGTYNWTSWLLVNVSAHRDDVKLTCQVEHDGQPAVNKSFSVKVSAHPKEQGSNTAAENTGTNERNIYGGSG
Briefly: SPR, Ab captured, ECD-His analyte. The gist of the method:
as §1

Test [12] has as its target T11, cynomolgus SIRPα extracellular domain + His-tag (XP_015313155) (cynomolgus monkey).
T11 construct: also called CySIRPα XP_015313155; cynoSIRPα
T11 chain: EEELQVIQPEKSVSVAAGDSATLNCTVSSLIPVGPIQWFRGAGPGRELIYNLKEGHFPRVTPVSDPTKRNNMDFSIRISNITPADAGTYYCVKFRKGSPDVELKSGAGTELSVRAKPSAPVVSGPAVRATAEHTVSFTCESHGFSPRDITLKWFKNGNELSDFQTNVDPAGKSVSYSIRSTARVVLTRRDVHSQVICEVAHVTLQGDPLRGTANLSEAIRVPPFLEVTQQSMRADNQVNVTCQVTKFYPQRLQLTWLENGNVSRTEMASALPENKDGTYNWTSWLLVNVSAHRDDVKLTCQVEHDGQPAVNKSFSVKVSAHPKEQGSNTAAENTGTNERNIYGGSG
Description: SPR, Ab captured, ECD-His analyte. The gist of the method:
as §1

In test [13] the target is T12, cynomolgus SIRPβ1v3 extracellular domain + His-tag (XP_005568593) (cynomolgus monkey).
T12 construct: also called Cyno SIRPβ1v3; cynoSIRPβ1v3
T12 chain: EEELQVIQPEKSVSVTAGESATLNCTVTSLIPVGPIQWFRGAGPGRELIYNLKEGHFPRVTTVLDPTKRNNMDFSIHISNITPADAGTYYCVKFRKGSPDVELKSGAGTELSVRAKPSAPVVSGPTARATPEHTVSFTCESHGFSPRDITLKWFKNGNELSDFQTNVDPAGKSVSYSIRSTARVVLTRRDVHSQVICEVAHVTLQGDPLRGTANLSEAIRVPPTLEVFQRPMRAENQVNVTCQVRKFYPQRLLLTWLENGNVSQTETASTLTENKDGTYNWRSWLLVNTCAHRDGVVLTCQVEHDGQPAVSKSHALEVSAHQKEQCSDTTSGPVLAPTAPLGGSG
Briefly: SPR, Ab captured, ECD-His analyte. Put shortly:
as §1

Test [14] deals with T13, cynomolgus SIRPγ extracellular domain + His-tag (XP_005568591) (cynomolgus monkey, UniProt Q9P1W8 29-359 (human entry)).
T13 construct: also called Cyno SIRPγ; cynoSIRPγ
T13 chain: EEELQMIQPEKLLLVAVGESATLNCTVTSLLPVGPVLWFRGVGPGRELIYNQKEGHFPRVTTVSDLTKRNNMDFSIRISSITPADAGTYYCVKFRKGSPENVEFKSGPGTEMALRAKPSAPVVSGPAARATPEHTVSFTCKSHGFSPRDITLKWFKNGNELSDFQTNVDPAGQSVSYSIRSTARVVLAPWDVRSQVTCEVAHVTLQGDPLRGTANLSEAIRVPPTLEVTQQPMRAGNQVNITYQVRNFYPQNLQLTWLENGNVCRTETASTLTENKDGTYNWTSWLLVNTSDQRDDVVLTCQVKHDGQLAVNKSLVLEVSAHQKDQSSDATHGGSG
Briefly: SPR, Ab captured, ECD-His analyte. The gist of the method: as §1

The target of test [15] is T6, human SIRPβ1 extracellular domain + …. Description: SPR, Ab captured, ECD-His analyte. As to the method: as §2, §3
The source holds these as a separate data set.

Test [16] addresses T7, human SIRPβL/SIRPβ1v3 extracellular …. Description: SPR, Ab captured, ECD-His analyte. As to the method:
as §2, §3
The source holds these as a separate data set.

The target in test [17] is T3, human SIRPγ extracellular domain + …. Description: SPR, Ab captured, ECD-His analyte. The protocol: as §2, §3
This is another data set of the same source.

T3 sequence (Q9P1W8 29-360): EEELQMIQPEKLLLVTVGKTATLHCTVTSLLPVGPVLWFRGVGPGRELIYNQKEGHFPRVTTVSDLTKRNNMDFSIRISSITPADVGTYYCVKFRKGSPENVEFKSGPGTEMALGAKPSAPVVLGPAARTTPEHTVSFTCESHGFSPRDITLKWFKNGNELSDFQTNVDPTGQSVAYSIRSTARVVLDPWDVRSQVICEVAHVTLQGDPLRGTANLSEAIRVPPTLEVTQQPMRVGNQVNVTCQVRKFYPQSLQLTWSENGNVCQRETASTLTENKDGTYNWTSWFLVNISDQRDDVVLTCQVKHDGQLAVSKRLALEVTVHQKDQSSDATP
T2 sequence (P78324 other isoform, or with tags, fused parts or gaps): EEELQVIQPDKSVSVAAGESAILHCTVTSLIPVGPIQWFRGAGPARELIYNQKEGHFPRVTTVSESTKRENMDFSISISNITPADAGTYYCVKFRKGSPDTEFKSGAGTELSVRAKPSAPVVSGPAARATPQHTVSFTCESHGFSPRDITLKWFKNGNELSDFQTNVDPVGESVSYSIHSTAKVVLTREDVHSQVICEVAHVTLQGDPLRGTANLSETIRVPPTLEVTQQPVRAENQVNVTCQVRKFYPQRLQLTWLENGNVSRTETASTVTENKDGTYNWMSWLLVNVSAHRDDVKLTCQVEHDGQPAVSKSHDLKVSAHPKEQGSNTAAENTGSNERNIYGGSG
T7 sequence (Q5TFQ8 other isoform, or with tags, fused parts or gaps): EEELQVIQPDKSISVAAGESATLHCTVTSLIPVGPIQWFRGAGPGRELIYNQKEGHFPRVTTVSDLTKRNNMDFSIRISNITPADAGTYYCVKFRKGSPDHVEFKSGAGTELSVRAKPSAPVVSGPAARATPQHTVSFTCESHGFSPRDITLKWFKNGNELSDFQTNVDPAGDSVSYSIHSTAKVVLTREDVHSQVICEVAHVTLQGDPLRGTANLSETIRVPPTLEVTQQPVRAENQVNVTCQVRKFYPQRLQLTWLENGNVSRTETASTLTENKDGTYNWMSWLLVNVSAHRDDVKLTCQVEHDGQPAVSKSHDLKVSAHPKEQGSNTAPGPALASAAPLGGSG
T6 sequence (O00241 other isoform, or with tags, fused parts or gaps): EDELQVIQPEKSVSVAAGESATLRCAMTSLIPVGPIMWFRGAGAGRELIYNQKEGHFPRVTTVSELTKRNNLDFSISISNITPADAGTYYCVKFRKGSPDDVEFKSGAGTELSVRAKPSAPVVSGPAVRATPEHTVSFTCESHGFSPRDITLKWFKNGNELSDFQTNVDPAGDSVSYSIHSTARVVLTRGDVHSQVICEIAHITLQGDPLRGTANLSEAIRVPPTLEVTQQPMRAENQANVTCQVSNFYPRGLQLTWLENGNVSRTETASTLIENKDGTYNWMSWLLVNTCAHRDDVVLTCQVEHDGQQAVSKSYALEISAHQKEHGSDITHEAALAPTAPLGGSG
T8 sequence (Q9P1W8 29-387): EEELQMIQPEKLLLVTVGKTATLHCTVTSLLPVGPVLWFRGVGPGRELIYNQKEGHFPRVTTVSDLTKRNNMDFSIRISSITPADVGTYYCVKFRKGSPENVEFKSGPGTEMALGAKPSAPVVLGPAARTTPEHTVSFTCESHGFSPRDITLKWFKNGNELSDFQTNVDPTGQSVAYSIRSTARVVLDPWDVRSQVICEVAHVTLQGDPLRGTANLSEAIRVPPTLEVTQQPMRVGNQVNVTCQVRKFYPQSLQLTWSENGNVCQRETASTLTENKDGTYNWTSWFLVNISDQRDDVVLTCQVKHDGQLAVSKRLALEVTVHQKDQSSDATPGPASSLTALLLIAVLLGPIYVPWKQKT
T1 sequence (P78324 other isoform, or with tags, fused parts or gaps): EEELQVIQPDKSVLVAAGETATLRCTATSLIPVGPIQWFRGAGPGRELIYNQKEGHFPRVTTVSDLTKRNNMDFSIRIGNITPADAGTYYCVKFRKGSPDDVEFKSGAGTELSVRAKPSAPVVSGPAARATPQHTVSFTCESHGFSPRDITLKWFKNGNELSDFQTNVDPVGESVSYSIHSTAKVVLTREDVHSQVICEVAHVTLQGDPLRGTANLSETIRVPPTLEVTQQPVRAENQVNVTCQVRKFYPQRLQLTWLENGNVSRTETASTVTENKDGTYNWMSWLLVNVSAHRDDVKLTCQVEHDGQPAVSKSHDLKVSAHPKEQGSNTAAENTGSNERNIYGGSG
Chain of full-length human SIRPβ1 D→H on Expi-CHO cells (O00241 30-398 D130H): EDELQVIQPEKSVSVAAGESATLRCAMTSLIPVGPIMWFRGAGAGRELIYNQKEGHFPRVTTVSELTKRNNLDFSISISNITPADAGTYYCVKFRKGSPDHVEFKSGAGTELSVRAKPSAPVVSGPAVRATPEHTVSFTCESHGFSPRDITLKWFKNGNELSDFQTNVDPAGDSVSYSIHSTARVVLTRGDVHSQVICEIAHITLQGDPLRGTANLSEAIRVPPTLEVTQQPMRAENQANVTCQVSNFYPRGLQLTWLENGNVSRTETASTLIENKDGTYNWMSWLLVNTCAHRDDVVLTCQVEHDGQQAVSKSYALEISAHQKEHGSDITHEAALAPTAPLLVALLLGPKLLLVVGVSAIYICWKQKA
T9 sequence (Q5TFQ8 30-398): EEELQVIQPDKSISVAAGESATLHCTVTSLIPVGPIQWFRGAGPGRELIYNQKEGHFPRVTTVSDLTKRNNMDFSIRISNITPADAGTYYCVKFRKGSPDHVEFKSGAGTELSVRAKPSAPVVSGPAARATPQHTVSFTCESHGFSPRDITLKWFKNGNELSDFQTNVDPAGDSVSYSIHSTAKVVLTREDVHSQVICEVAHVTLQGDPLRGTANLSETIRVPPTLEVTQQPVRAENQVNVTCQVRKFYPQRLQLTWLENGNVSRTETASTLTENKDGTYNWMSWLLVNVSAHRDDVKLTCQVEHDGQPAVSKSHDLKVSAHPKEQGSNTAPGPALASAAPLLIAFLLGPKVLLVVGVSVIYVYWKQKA

B1: Antibody B (antibody, human IgG1, kappa, L234A L235A, V domains shown)
VH: QVQLVQSGAEVKKPGASVKVSCKASGYTFTGNYMHWVRQAPGQGLEWMGWINPNSGGTNYAQKFQGRVTMTRDTSISTAYMELSRLRSDDTAVYYCVSGSGWYENYYYYGMDVWGQGTTVTVSS
VL: DIQMTQSPSSVSASVGDRVTITCRASQGISSWLAWYQQKPGKAPKLLIYAESSLQSGVPSRFSGSGSGTDFTLTISSLQPEDFATYYCQQANSFPLTFGGGTKVEIKR
As to B1, the Kd in [1] stood at 17.4 nM; in [2], 71.5 nM. The binding result is given as “no binding (tested: 1000 nM)” in test [3], “no binding” in test [4] and “no binding (tested: 1000 nM)” in [5].

B2: Antibody G (antibody, human IgG4 S228P, kappa)
heavy: not shown
light: DIVMTQSPLSLPVTPGEPASISCKSSQSLLYSNGYNYLDWYLQRPGQSPQLLIYLGSNRASGVPDRFSGSGSGTDFTLKISRVEAEDVGVFYCMQALQTPLTFGGGTKVEIKRTVAAPSVFIFPPSDEQLKSGTASVVCLLNNFYPREAKVQWKVDNALQSGNSQESVTEQDSKDSTYSLSSTLTLSKADYEKHKVYACEVTHQGLSSPVTKSFNRGEC
Turning to B2, the dissociation constant Kd in test [1] is 0.497 nM; in [2], 0.465 nM; in [6], 1270 nM; in test [7] it was 1.27 nM. Besides, the binding result is “no binding (tested: 1000 nM)” in [3], “no binding” in [4] and “no binding” in test [8].

B3: Antibody A4 (antibody, human IgG1, kappa, L234A L235A, V domains shown)
VH: EVQLVESGGGLVQPGGSLRLSCAASGFTLSSYDMHWVRQAPGKGLEWVSAIGTAGDTYYTGSVKGRFTISRENAKNSLYLQMNSLRAADTAVYYCVRGGVWDDAFDIWGQGTMVTVSS
VL: DIQMTQSPSSLSASVGDRVTITCRASQGINNYAAWFQQKPGKAPKSLIYTASSLHSGVPSKFSGSGSGTDFTLTISSLQPEDFATYYCQQYVSYPYTFGQGTKLEIKR
Take B3: the binding result in test [9] is given as “no binding”; in [10] it was “no binding”; in test [14] it was “no binding (tested: 1000 nM)”; in test [16], “no binding (tested: 100 nM)”; in [17] it was “no binding (tested: 1000 nM)”; in [8], “no binding”. The Kd in test [11] was 508 nM; in [12], 374 nM; in test [13] it was 460 nM; in [15], 67.2 nM.
